Experimental data: patent US9926375B2, “Anti-endoglin antibodies and uses thereof” (Tracon Pharmaceuticals, Inc., priority 2014, dated 2018)
“Also recorded” adds a separate entry of the source.

Experiments:
[1] = test system: NASH mice; experiment: Murine model of non-alcoholic steatohepatitis (NASH; STZ and high fat diet); assay type: in vivo, mouse
Summary of the method: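 NASH induced in mice by single postnatal subcutaneous STZ plus high-fat diet from 4 weeks of age; groups of 10 dosed from day 63 with antibodies i.v. at 10 mg/kg twice weekly or telmisartan orally 10 mg/kg daily to day 84. At 12 weeks, H&E liver sections scored for NAFLD Activity Score (0–8); Bonferroni test, P<0.05.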

[2] = molecular target: T1, mouse endoglin (Mus musculus, UniProt Q63961); experiment: Inhibition of mouse BMP binding to mouse endoglin (statement, no method); conditions: statement in description
T1 sequence (Q63961 27-653): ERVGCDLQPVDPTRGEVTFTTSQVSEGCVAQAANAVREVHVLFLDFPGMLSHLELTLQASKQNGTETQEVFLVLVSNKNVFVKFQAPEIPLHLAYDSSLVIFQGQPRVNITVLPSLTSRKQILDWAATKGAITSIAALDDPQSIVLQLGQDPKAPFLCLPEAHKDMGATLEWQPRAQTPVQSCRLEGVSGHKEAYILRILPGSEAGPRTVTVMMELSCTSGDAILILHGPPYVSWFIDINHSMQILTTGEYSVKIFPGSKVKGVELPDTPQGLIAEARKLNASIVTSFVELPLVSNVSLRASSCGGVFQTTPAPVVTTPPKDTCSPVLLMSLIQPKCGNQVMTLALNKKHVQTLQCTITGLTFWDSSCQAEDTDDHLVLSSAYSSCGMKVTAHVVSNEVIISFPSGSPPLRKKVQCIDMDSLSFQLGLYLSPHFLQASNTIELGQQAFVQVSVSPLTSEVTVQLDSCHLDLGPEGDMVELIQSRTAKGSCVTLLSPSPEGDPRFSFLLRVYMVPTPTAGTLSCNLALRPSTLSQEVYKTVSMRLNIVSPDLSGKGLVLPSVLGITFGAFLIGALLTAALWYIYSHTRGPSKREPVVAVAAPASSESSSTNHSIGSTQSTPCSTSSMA

[3] = test system: CCl4-induced liver fibrosis model mice; experiment: Carbon tetrachloride-induced liver fibrosis model; assay type: in vivo, mouse; conditions: for Percentage of fibrosis area (Sirius red-positive area), comparison with isotype-matched antibody group: P<0.05, Bonferroni
Method: Seven-week-old female C57BL/6J mice (17˜21 g) were obtained from Japan SLC (Japan).
Mice were divided into 3 groups of 8 mice based on their body weight on the day before the start of the treatment (day 13).
Mice were intraperitoneally administered 5% CCl4 (Sigma-Aldrich, USA) in mineral oil (Sigma-Aldrich) in a volume of 100 μL twice a week (day 0, 4, 7, 11, 14, 18, 21 and 25) after acclimation.
To visualize collagen deposition, sections were cut from paraffin blocks of left lateral liver tissue prefixed in Bouin's solution and stained with picro-Sirius red solution (Waldeck, Germany). For quantitative analysis of fibrosis area, bright field images of Sirius red-stained section were randomly captured using a digital camera (DFC280; Leica Microsystems, Germany) at 100-fold magnification, and the Sirius red-stained positive areas in 5 field/section were measured using ImageJ software (National Institute of Health, USA). The quantification was done in a blinded fashion.
Statistical analyses were performed using Bonferroni Multiple comparison test on GraphPad Prism 4 (GraphPad Software, USA). P values<0.05 were considered statistically significant. Results were expressed as mean±SD.
Eight CCl4-induced liver fibrosis model mice were intravenously administered vehicle supplemented with M1043 Antibody at a dose of 10 mg/kg twice weekly at day 14, 17, 21 and 24. All animals were sacrificed on day 28.

[4] = liver gene expression, mean ± SD, Normal-Vehicle 1.0
[5] = 10 mg/kg IV twice weekly, day 28, mean ± SD, n = 8
[6] = isotype-matched antibody vs disease control, M1043 Antibody vs isotype-matched antibody

B1: M1043: rat IgG1 antibody that binds mouse endoglin and competitively inhibits mouse BMP binding; VH SEQ ID NO: 124, VL SEQ ID NO: 125 (antibody, V domains shown)
VH: QVQLQQSGAELVKPGSSVKISCKASGYTFTSYDMHWIKQQPGNGLEWIGWIYPGNGNTKYNQKFNGKATLTADKSSSTAYMQLSSLTSEDSAVYFCARGKFGVGDYWGQGVMVTVSS
VL: DTVLTQSPALAVSPGERVSISCRASEGVNSYMHWYQQKPGQQPKLLIYIASNLASGVPARFSGSGSGTDFTLTIDPVEADDTATYFCQQSWNDPYTFGAGTKLELKR
In the case of B1, the “Liver triglyceride contents compared with the NASH-Vehicle group” value ([1]; Bonferroni, P<0.05) is reported as “significant decreases”, the “Mean liver weight compared with the NASH-Vehicle group” value ([1]; Bonferroni, P<0.05) is reported as “tended to decrease” and the “Mean liver-to-body weight ratio compared with the NASH-Vehicle group” value ([1]; Bonferroni, P<0.05) is reported as “significant decreases”. The “NAS compared with the NASH-Vehicle group” value ([1]; Bonferroni, P<0.05) was “significant decreases in NAS; also recorded: significant reductions of NAS”, the “Serum alanine aminotransferase (ALT) levels compared with the NASH-Vehicle group” value ([1]; Bonferroni, P<0.05) was “tended to decrease” and the “Serum aspartate aminotransferase (AST) levels compared with the NASH-Vehicle group” value ([1]; Bonferroni, P<0.05) was “tended to decrease”. The “F4/80-positive signals and cells in liver compared with the NASH-Vehicle group” value ([1]; F4/80 immunostaining, macrophage marker) was “Lower F4/80-positive signals and positive cells”, the “Alpha-SMA mRNA expression” value [1, 4] was 1.7 ± 0.4 and the “MCP-1 mRNA expression” value [1, 4] was 3.2 ± 2.4. For the same molecule, the “TIMP-1 mRNA expression” value [1, 4] was 7.6 ± 3.3, the “TNF-α mRNA expression” value [1, 4] was 4.4 ± 1.9 and the Liver triglyceride ([1]; mean ± SD) was 22.4 ± 5.4 mg/g liver. The “Serum ALP” value ([1]; mean ± SD) was 358 ± 129 U/L, the “Serum ALT” value ([1]; mean ± SD) was 24 ± 4 U/L and the “Serum AST” value ([1]; mean ± SD) was 76 ± 24 U/L. The Sirius red-positive area ([1]; mean ± SD, liver sections) was 0.86 ± 0.30%, the “NAS (NAFLD Activity score)” value ([1]; mean ± SD, range 0-8, 10 mg/kg) was 4.1 ± 1.0 and the “Lobular inflammation score 0, number of mice” value ([1]; score 0 = No Foci) was 1. For the same molecule, the “Hepatocyte ballooning score 0, number of mice” value ([1]; score 0 = None) was 2, the “Steatosis score 1, number of mice” value ([1]; score 1 = 5-33%) was 6 and the “Lobular inflammation score 1, number of mice” value ([1]; score 1 = <2 foci/200x) was 1. The “Hepatocyte ballooning score 1, number of mice” value ([1]; score 1 = Few balloon cells) was 2, the “Lobular inflammation score 2, number of mice” value ([1]; score 2 = 2-4 foci/200x) was 6 and the “Steatosis score 2, number of mice” value ([1]; score 2 = >33-66%) was 2. The “Hepatocyte ballooning score 2, number of mice” value ([1]; score 2 = Many cells/prominent ballooning) was 4, the “Inflammatory cell infiltration in the liver” value ([1]; summary of lobular inflammation score and F4/80 immunostaining) was “reductions in inflammatory cell infiltration in the liver” and the “Effect on mouse BMP binding to mouse endoglin” value [2] was “competitively inhibit mouse BMP binding”. For the same molecule, the “General condition / abnormal findings” value ([3]; 10 mg/kg IV twice weekly) was “no abnormal findings were observed”, the “Body weight on the day of sacrifice” value [3, 5] was 20.5 ± 0.7 g and the Liver weight [3, 5] was 896 ± 48 mg. For the same molecule, the “Sirius red-positive area (fibrosis area)” value [3, 5] was 2.07 ± 0.52%, the “Percentage of fibrosis area (Sirius red-positive area), comparison with isotype-matched antibody group” value ([3]; listed as Antibody M1043) was “significant reduction of collagen deposition” and the “Percentage of fibrosis area (Sirius red-positive area), comparison with isotype-matched antibody group” value ([3]; listed as M1043 Antibody) was “significantly decreased”. For the same molecule, the “Collagen deposition and bridging fibrosis in Sirius red-stained liver sections” value ([3]; histology, day 28) was “lower collagen deposition with less frequent formation of bridging fibrosis”, the “Body weight changes, comparison between groups” value [3, 6] was “no significant differences” and the “Body weight on the day of sacrifice, comparison between groups” value [3, 6] was “no significant differences”. For the same molecule, the “Mean liver weight, comparison between groups” value ([3]; isotype-matched antibody vs disease-control, M1043 Antibody vs isotype-matched antibody) was “no significant difference in mean body weight”.
